Measurements as given in article PMC3518660 (Journal of immunology (Baltimore, Md. : 1950), 2012).
Read-outs that look alike come from different tables or passages of the source.

Key:
[1] = molecular target: T1, recombinant soluble integrin αvβ3 (UniProt P06756 31-987; P05106 27-718); experiment: SPR
[2] = molecular target: T1, recombinant soluble integrin αvβ3; experiment: SPR; remark: listed apart in the source
[3] = molecular target: T1, recombinant soluble integrin αvβ3; experiment: ELISA

T1 sequence (P06756 31-987, chain 1 of 2): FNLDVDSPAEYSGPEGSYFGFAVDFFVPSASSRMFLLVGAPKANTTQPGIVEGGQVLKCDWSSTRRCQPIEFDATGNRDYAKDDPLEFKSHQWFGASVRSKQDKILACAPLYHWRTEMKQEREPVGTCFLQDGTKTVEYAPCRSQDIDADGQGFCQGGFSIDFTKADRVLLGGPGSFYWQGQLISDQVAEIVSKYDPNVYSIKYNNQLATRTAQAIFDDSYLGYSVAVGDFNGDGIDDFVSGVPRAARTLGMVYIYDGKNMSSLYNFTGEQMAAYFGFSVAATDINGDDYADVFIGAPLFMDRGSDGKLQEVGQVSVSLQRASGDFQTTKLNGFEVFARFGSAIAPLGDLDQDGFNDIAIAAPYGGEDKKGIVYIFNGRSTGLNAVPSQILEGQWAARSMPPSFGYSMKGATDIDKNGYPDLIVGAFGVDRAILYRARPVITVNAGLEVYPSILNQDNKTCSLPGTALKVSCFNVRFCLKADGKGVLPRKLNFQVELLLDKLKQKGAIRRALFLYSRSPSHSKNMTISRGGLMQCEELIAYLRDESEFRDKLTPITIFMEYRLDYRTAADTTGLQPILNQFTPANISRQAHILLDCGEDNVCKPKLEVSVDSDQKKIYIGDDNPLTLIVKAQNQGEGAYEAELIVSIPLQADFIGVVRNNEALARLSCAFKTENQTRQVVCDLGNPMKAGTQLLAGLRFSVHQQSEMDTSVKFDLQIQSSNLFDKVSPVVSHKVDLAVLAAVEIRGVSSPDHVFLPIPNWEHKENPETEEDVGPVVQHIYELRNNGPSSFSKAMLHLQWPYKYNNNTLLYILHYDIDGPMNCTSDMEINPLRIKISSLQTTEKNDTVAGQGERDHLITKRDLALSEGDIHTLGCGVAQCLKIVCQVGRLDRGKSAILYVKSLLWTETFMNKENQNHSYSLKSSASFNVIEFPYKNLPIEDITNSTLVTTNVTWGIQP
T1 sequence (P05106 27-718, chain 2 of 2): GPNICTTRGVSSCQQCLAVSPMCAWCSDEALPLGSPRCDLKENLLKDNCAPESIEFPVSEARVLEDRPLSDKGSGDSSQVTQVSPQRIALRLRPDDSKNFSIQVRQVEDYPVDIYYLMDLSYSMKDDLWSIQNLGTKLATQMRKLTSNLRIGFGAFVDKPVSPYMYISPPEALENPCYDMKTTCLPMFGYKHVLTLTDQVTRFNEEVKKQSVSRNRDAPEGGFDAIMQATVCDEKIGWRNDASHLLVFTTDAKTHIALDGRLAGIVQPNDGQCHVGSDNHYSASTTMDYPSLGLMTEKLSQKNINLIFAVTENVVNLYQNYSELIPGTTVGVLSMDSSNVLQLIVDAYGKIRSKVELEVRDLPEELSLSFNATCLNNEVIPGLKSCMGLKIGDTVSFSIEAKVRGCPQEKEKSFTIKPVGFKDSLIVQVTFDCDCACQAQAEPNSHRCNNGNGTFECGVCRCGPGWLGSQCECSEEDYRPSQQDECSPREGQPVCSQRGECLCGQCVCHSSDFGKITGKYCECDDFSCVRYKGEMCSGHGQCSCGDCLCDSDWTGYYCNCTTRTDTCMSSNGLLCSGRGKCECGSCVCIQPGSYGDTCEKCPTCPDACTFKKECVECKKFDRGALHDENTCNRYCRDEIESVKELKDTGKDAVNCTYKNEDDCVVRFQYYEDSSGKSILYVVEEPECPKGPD

Binder	Kd [1] [nM]	Kd [2] [nM]	binding result [3]
chemokine domain of fractalkine (FKN-CD), wild type, 6His-tagged (domain or fragment, human) QHHGVTKCNITCSKMTSKIPVALLIHYQQNQASCGKRAIILETRQHRLFCADPKEQWVKDAMQHLDRQAAALTRNG	6.9	11	
FKN-CD Arg47 to Ala mutant (R47A) (domain or fragment, human) QHHGVTKCNITCSKMTSKIPVALLIHYQQNQASCGKRAIILETRQHALFCADPKEQWVKDAMQHLDRQAAALTRNG			binds
FKN-CD Lys54 to Ala mutant (K54A) (domain or fragment, human) QHHGVTKCNITCSKMTSKIPVALLIHYQQNQASCGKRAIILETRQHRLFCADPAEQWVKDAMQHLDRQAAALTRNG			binds
FKN-CD Lys54/Lys59 to Ala mutant (K54A/K59A) (domain or fragment, human) QHHGVTKCNITCSKMTSKIPVALLIHYQQNQASCGKRAIILETRQHRLFCADPAEQWVADAMQHLDRQAAALTRNG			binds
